# Laboratory results: PMC4968546, “Heterologous Production and Characterization of Two Glyoxal Oxidases from Pycnoporus cinnabarinus” (Applied and Environmental Microbiology, 2016)
# B1: PciGLOX1 (Trametes cinnabarina) (protein)
# chain: APSAPGWRFDLKAERSGIVALESIVVSPTLVLWFDRASDDPLQINNHSAWGALWNLETSTVRPLNVLTNSFCASGALLSNGSMASVGGDPRGFPGNPAINPGNQAIRIFEPCASPTGDGCTVFEDPQTLHLLEDRWYPSSIRIFDGSLLIVGGTHVNENFYNLHPANSFEFFPPKESTPRPSAFLERSLPANLFPRIFALPDGKVFMVANNQSIIYDIEANTERILPDIPNNVRVTNPIDGSAILLPLTPPDYIPEVLVCGGTSTDPLDPSLLSSQTPATTQCSRIRLDEEGIAKGWQVEHMLEPRTMPELVHIPNGQILIANGARTGFAAIKQVQDPIGNSNSDHAVLVPSIYTPDAPLGQRISNAGMPSSGIARVYHSSITLTPQGNFLIAGSNPNGNTTVGPGVKFPSEFRVQTLDPPFMFVERPKILNTPEKLAFNKTFTVPISVPSTLASPGAKVQVSLMDLGFSSHAFHSSARLVFMDATISRDRRSLTFTTPPNGRVFPPGPATVFLTIDGVTSEGAWVMMGSGNSPPTLE
# notes: secreted from Aspergillus niger D15#26; native 18-aa signal peptide … replaced by A. niger glucoamylase prepro (removed in processing); ORF 556 aa; N-terminus APSA; N-glycosylated, 70 kDa (about 60 kDa deglycosylated)
# B2: PciGLOX2 (Trametes cinnabarina) (protein)
# chain: APSTPTGWQFNLKAERSGIVALESIVVSPTLVVFFDRATNDPLQINNHSAWGALWNLETSTVRALDVLTNSFCASGALLSNGTMASIGGDPNGFPGNPAIHPGTQAIRLFEPCDSPTGEGCTLFEDPVTLHLLEKRWYPSSVRIFDGSLLIVGGMHEETPFYNTDPALSFEFFPPKESTPRPSEFLNRSLPANLFPRVFALPDGKVFMVANNQSIIYDIEANTERILPDIPNNVRVTNPIDGSAILLPLSPPDFVPEVLVCGGTQTDTIDPSLLTSQTPASSQCSRIRLDEEGIARGWEVEHMLEGRMMPELVHLPNGQVLIANGARTGFAAIASVSDPVGGSNADHAVLVPSLYTPDAPLGTRISNVGLPSSGIARVYHSSITLTPQGNFLIAGSNPNNNSSVTAGVKFPSEFRVQTLDPPFMFVERPKILSMPKKLAFGKSFTVPIAVPSTLAHPGAKVQVSLMDLGFSSHAFHSSARLVFMNAKISQDGKSLTFTTPPNGRVYPPGPATIFLTIDDVTSEGAWVMMGSGNPPPTLE
# notes: secreted from Aspergillus niger D15#26; ORF 559 aa; N-terminus APST; N-glycosylated, 70 kDa (about 60 kDa deglycosylated)
# Legend:
# Assay in all cases: HRP/ABTS coupled H2O2 assay, A420, Lineweaver-Burk
# Format in all cases: biochemical, Trametes cinnabarina
# Conditions in all cases: 50 mM sodium 2,2-dimethylsuccinate, pH 6, 30°C, O2 as co-substrate, HRP, 0.1 mM ABTS
# [1] = substrate: CC(=O)C=O
# Description: (§1) HRP/ABTS coupled H2O2 assay, A420, Lineweaver-Burk on PciGLOX1
# [2] = substrate: O=CC(=O)O
# Description: as §1
# [3] = substrate: O=CC=O
# Description: as §1
# [4] = substrate: CC(=O)C=O; remark: listed apart in the source
# Description: (§2) HRP/ABTS coupled H2O2 assay, A420, Lineweaver-Burk on PciGLOX2
# [5] = substrate: O=CC(=O)O; remark: listed apart in the source
# Description: as §2
# [6] = substrate: O=CC=O; remark: listed apart in the source
# Description: as §2
# [7] = substrate: OCC(O)CO
# Description: as §2
protein,measurement,setting,value
B1,Km,[1],1300 µM
same,Vmax,[1],77.3 µmol/min/mg
same,kcat,[1],76 s⁻¹
same,kcat/Km,[1],58500 M⁻¹ s⁻¹
same,Km,[2],88 µM
same,Vmax,[2],192 µmol/min/mg
same,kcat,[2],188 s⁻¹
same,kcat/Km,[2],2.14e+06 M⁻¹ s⁻¹
same,Km,[3],13100 µM
same,Vmax,[3],85.3 µmol/min/mg
same,kcat,[3],83 s⁻¹
same,kcat/Km,[3],6340 M⁻¹ s⁻¹
B2,Km,[4],200 µM
same,kcat,[4],1.4 s⁻¹
same,Km,[5],100 µM
same,Vmax,[5],17.9 µmol/min/mg
same,kcat,[5],1.7 s⁻¹
same,kcat/Km,[5],17000 M⁻¹ s⁻¹
same,Km,[6],2200 µM
same,Vmax,[6],15 µmol/min/mg
same,kcat,[6],1.4 s⁻¹
same,kcat/Km,[6],636 M⁻¹ s⁻¹
same,Km,[7],9400 µM
same,Vmax,[7],6.42 µmol/min/mg
same,kcat,[7],0.6 s⁻¹
same,kcat/Km,[7],63 M⁻¹ s⁻¹
